Results taken from publication PMC10667097 (2023).

Target: GST RBX1–CUL1–NEDD8 (human, UniProt Q13616 1-776; P62877 5-108; Q15843 1-76, NEDD8 linked to a specific site in the WHB subdomain | C-terminus linked to the cullin (isopeptide))
Assay: BLI

GST RBX1–CUL1–NEDD8, sequence (Q13616 whole entry, chain 1 of 3): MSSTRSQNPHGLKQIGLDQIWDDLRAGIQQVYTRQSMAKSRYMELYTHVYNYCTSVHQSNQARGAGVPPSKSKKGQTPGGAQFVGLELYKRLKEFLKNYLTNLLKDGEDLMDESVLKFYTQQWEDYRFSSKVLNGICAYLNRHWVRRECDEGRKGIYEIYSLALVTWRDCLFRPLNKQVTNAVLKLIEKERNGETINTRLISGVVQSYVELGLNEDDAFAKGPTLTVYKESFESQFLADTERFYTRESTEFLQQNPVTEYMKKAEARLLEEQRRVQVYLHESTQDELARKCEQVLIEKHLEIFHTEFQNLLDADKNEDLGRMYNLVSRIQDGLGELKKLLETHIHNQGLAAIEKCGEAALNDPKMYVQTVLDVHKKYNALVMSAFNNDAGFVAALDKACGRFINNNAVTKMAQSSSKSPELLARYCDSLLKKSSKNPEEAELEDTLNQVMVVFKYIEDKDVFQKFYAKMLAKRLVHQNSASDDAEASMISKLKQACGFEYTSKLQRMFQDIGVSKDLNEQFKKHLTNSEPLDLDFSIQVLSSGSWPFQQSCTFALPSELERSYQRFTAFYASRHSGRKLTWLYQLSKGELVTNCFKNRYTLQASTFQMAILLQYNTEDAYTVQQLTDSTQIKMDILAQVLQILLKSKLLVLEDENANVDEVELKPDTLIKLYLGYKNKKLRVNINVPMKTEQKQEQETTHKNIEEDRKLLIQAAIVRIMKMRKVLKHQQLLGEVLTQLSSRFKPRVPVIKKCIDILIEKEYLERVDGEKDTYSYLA
GST RBX1–CUL1–NEDD8, sequence (P62877 5-108, chain 2 of 3): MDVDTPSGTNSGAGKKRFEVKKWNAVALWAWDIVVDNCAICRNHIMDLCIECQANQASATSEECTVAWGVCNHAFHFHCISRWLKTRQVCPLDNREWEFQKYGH
GST RBX1–CUL1–NEDD8, sequence (Q15843 1-76, chain 3 of 3): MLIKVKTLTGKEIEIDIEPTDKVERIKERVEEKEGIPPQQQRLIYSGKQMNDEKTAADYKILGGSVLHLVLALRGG

B1: N8C_Fab3b (Fab, V domains shown)
VH: EVQLVESGGGLVQPGGSLRLSCAASGFNFSSSSIHWVRQAPGKGLEWVASISSSYGYTYYADSVKGRFTISADTSKNTAYLQMNSLRAEDTAVYYCARDPFGWAAHGVGLDYWGQGTLVTVSS
VL: DIQMTQSPSSLSASVGDRVTITCRASQSVSSAVAWYQQKPGKAPKLLIYSASSLYSGVPSRFSGSRSGTDFTLTISSLQPEDFATYYCQQSSYSLITFGQGTKVEIK
**Q.** With B1 as the binder, how does the Kd read?
**A.** Its Kd is 1.27 nM.
